B1: 6-FAM ERE-DNA (dsDNA)
DNA 1: TAGGTCACAGTGACCTGCG
DNA 2: CGCAGGTCACTGTGACCTA
B2: human estrogen receptor alpha multidomain segment containing both DBD and LBD (residues E181–P552), hERα^CDE (domain or fragment, UniProt P03372 181-552, looked up)
chain: ETRYCAVCNDYASGYHYGVWSCEGCKAFFKRSIQGHNDYMCPATNQCTIDKNRRKSCQACRLRKCYEVGMMKGGIRKDRRGGRMLKHKRQRDDGEGRGEVGSAGDMRAANLWPSPLMIKRSKKNSLALSLTADQMVSALLDAEPPILYSEYDPTRPFSEASMMGLLTNLADRELVHMINWAKRVPGFVDLTLHDQVHLLECAWLEILMIGLVWRSMEHPGKLLFAPNLLLDRNQGKCVEGMVEIFDMLLATSSRFRMMNLQGEEFVCLKSIILLNSGVYTFLSSTLKSLEEKDHIHRVLDKITDTLIHLMAKAGLTLQQQHQRLAQLLLILSHIRHMSNKGMEHLYSMKCKNVVPLYDLLLEMLDAHRLHAP
notes: Cloned into pMCSG7 and the His-tag removed with TEV protease; In the assays it carried estradiol (E2) and ERE-DNA; also called hERα^CDE–DNA-E2 complex; protein part of hERα^complex; source: E. coli Rosetta2(DE3)pLysS, expressed in the presence of estradiol, purified (TALON resin, TEV cleavage, Superdex 200)

Columns and labels:
[1] = target: hERαCDE Y191H (Homo sapiens, UniProt P03372 181-552, Y191H); assay: fluorescence anisotropy; E2, TIF2 coactivator peptide; 20 nM DNA; FA: 10 mM CHES pH 9.5, 50 mM KCl, 50 mM NaCl, 4 mM MgCl2, 50 mM arginine, 50 mM glutamic acid, 5 mM TCEP, 5% glycerol, 10 uM ZnCl2, 10 uM E2; 20 nM DNA, 10 min; temperature not stated; conditions: protein: recombinant; tags: His-tag (pMCSG7), removed by TEV; chain copies: 2; label: 5' 6-FAM (strands described as 5'-labeled); blunt, 19 bp as printed (text says 18-bp)
[2] = target: hERαCDE W393A (Homo sapiens, UniProt P03372 181-552, W393A); assay: as above; conditions: protein: recombinant; tags: His-tag (pMCSG7), removed by TEV; chain copies: 2; label: 5' 6-FAM (strands described as 5'-labeled); blunt, 19 bp as printed (text says 18-bp)
hERαCDE W393A, sequence (P03372 181-552 W393A): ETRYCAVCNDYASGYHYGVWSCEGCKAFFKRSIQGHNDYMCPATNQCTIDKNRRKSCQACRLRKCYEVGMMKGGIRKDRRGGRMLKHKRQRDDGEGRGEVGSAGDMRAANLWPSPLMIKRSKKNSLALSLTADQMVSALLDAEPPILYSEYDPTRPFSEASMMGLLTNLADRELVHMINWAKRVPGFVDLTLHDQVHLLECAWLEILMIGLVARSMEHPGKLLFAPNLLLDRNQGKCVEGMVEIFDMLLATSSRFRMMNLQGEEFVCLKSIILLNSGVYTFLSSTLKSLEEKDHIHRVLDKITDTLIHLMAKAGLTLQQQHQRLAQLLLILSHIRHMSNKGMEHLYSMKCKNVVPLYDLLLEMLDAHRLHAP

[3] = target: hERαCDE WT (Homo sapiens, UniProt P03372 181-552); assay: fluorescence anisotropy; E2, TIF2 coactivator peptide; 20 nM DNA; apparent Kd; FA: 10 mM CHES pH 9.5, 50 mM KCl, 50 mM NaCl, 4 mM MgCl2, 50 mM arginine, 50 mM glutamic acid, 5 mM TCEP, 5% glycerol, 10 uM ZnCl2, 10 uM E2; 20 nM DNA, 10 min; temperature not stated; conditions: protein: recombinant; tags: His-tag (pMCSG7), removed by TEV; chain copies: 2; label: 5' 6-FAM (strands described as 5'-labeled); blunt, 19 bp as printed (text says 18-bp)
[4] = target: the molecule itself; assay: SEC-SAXS + hydroxyl radical protein footprinting, docked models scored against both data sets; hERα^CDE eluted from Superdex 200 with E2, ERE–DNA and TIF2 peptide; 10 mM CHES pH 9.5, 50 mM NaCl, 50 mM KCl; footprinting at 2 µM protein, pH 9.5

Row | Binder | Kd [1] [nM] | Kd [2] [nM] | Kd [3] [nM] | binding result [4]
1 | B1 | 3.2 | 10.8 | 9.2 | 
2 | B2 |  |  |  | binds
